These results are taken from patent US20240343781A1 (published 2024).

Broadly, the Kd is the concentration at which binding is half-saturated. Low values mean higher affinity, high ones lower affinity.

This test has as its target SARS-COV-2 D614G spike trimer (SARS-CoV-2, UniProt P0DTC2 14-1208). Description: SPR. A general note: In SPR one partner is held on a chip, and binding of the other changes the refractive index at the surface.

B1: engineered monoclonal antibody 12-19 (antibody, V domains shown)
VH: QVQLVESGGGVVQPGRSLRLSCEASGFTFNTYDMHWARQAPGKGLEWVAVIWYDGSNKFYADSVKGRFTISRDNSKNTLYLQMNSLRAEDTAVYYCARDRTPVYDILTGYYWPPPRVDGMDVWGQGTTVTVSS
VL: DNVMTQTPFSLSVTPGQPASISCKSSQSLLHSDGKTYLYWYLQKPGQSPQLLIYEVSNRFSGVPERFSGSGSGTDFTLKISRVEAEDVGVYYCMQSIQLPFTFGQGTKLEIK
B1 displayed a Kd of 9.35 nM.

B2: engineered monoclonal antibody 12-16 (antibody, V domains shown)
VH: QVQLVESGGGVVQPGRSLRLSCAASGFTFSNYGMHWVRQAPGKGLEWVAIISFDGSNRYYADSVKGRFTISRDNSKNTLYLQMDSLRAEDTAVYYCAKDLSFYYDISTGYYPQSYNSGTDVWGQGTTVTVSS
VL: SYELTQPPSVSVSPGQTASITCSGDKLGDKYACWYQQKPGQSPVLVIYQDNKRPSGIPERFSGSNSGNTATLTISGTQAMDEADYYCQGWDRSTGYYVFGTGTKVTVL
In the case of B2, the Kd turned out to be 1.6 nM. This Kd is about 5.8-fold lower than that of the molecule before.
